According to patent publication US20200024330A1:

How the values were obtained:
Assay in all cases: cell-based or functional assay
[1] = biological target: HIV-1 Env of isolate MGRM-Chronic-B-004 (HIV-1)
[2] = biological target: HIV-1 Env of isolate 92WR020 (pseudovirus) (HIV-1)
[3] = biological target: HIV-1 Env of isolate CAAN.A2 (HIV-1)
[4] = biological target: HIV-1 Env of isolate JRFL (HIV-1)
[5] = biological target: HIV-1 Env of isolate VLGCA1 (pseudovirus) (HIV-1)
[6] = biological target: HIV-1 Env of isolate 92WR026 (pseudovirus) (HIV-1)
[7] = biological target: HIV-1 Env of isolate MG RM-A-008 (pseudovirus) (HIV-1)
[8] = biological target: HIV-1 Env of isolate MGRM-Chronic-B-008 (HIV-1)
[9] = biological target: HIV-1 Env of isolate MG RM-A-014 (pseudovirus) (HIV-1)
[10] = biological target: HIV-1 Env of isolate MG RM-A-009 (pseudovirus) (HIV-1)
[11] = biological target: HIV-1 Env of isolate MGRM-AE-003 (pseudovirus) (HIV-1)
[12] = biological target: HIV-1 Env of isolate MGRM-D-003 (subtype D), on pseudovirus (HIV-1)
[13] = biological target: HIV-1 Env of isolate 98CN009 (subtype CRF07_BC), on pseudovirus (HIV-1)
[14] = biological target: HIV-1 Env of isolate MG RM-A-013 (pseudovirus) (HIV-1)
[15] = biological target: HIV-1 Env of isolate APV_6 (HIV-1)
[16] = biological target: HIV-1 Env of isolate 92BR020 (HIV-1)
[17] = biological target: HIV-1 Env of isolate 92UG024 (subtype D), on pseudovirus (HIV-1)
[18] = biological target: HIV-1 Env of isolate MGRM-AE-004 (pseudovirus) (HIV-1)
[19] = biological target: HIV-1 Env of isolate 93TH305 (HIV-1)
[20] = biological target: HIV-1 Env of isolate MG RM-A-011 (pseudovirus) (HIV-1)
[21] = biological target: HIV-1 Env of isolate 92UG001 (subtype D), on pseudovirus (HIV-1)
[22] = biological target: HIV-1 Env of isolate 94UG103 (pseudovirus) (HIV-1)
[23] = biological target: HIV-1 Env of isolate 92WR021 (pseudovirus) (HIV-1)
[24] = biological target: HIV-1 Env of isolate 93WR029 (pseudovirus) (HIV-1)
[25] = biological target: HIV-1 Env of isolate MGRM-AE-001 (pseudovirus) (HIV-1)
[26] = biological target: HIV-1 Env of isolate 92UG005 (subtype D), on pseudovirus (HIV-1)
[27] = biological target: HIV-1 Env of isolate MGRM-AE-005 (pseudovirus) (HIV-1)
[28] = biological target: HIV-1 Env of isolate MG RM-A-005 (pseudovirus) (HIV-1)
[29] = biological target: HIV-1 Env of isolate 92UG037 (pseudovirus) (HIV-1)
[30] = biological target: HIV-1 Env of isolate 98CN006 (subtype CRF08 BC), on pseudovirus (HIV-1)
[31] = biological target: HIV-1 Env of isolate 92UG046 (subtype D), on pseudovirus (HIV-1)
[32] = biological target: HIV-1 Env of isolate MGRM-D-002 (subtype D), on pseudovirus (HIV-1)
[33] = biological target: HIV-1 Env of isolate MGRM-AE-002 (pseudovirus) (HIV-1)
[34] = biological target: HIV-1 Env of isolate MGRM-D-005 (subtype D), on pseudovirus (HIV-1)
[35] = biological target: HIV-1 Env of isolate MGRM-D-004 (subtype D), on pseudovirus (HIV-1)
[36] = biological target: HIV-1 Env of isolate 92UG114 (subtype D), on pseudovirus (HIV-1)
[37] = biological target: HIV-1 Env of isolate 6535.3 (HIV-1)
[38] = biological target: HIV-1 Env of isolate MG RM-A-010 (pseudovirus) (HIV-1)
[39] = biological target: HIV-1 Env of isolate MG RM-A-007 (pseudovirus) (HIV-1)
[40] = biological target: HIV-1 Env of isolate MGRM-AE-006 (pseudovirus) (HIV-1)
[41] = biological target: HIV-1 Env of isolate MGRM-D-001 (subtype D), on pseudovirus (HIV-1)
[42] = biological target: HIV-1 Env of isolate CMU02 (pseudovirus) (HIV-1)
[43] = biological target: HIV-1 Env of isolate 92RW009 (clade A), on pseudovirus (HIV-1)
[44] = biological target: HIV-1 Env of isolate MGRM-D-008 (subtype D), on pseudovirus (HIV-1)
[45] = biological target: HIV-1 Env of isolate 92TH021 (pseudovirus) (HIV-1)
[46] = biological target: HIV-1 Env of isolate MGRM-Chronic-B-003 (HIV-1)
[47] = biological target: HIV-1 Env of isolate 93UG077 (pseudovirus) (HIV-1)
[48] = biological target: HIV-1 Env of isolate 92WR024 (pseudovirus) (HIV-1)
[49] = biological target: HIV-1 Env of isolate APV_17 (HIV-1)
[50] = biological target: HIV-1 Env of isolate 92RW008 (clade A), on pseudovirus (HIV-1)
[51] = biological target: HIV-1 Env of isolate 92UG031 (pseudovirus) (HIV-1)
[52] = biological target: HIV-1 Env of isolate MGRM-Chronic-B-002 (HIV-1)
[53] = biological target: HIV-1 Env of isolate MG RM-A-012 (pseudovirus) (HIV-1)
[54] = biological target: HIV-1 Env of isolate 94 KE 105 (pseudovirus) (HIV-1)
[55] = biological target: HIV-1 Env of isolate MGRM-Chronic-B-001 (HIV-1)
[56] = biological target: HIV-1 Env of isolate APV_13 (HIV-1)
[57] = biological target: HIV-1 Env of isolate MG RM-A-006 (pseudovirus) (HIV-1)

4995_P16 (PGT-145) (antibody), sequence (VH): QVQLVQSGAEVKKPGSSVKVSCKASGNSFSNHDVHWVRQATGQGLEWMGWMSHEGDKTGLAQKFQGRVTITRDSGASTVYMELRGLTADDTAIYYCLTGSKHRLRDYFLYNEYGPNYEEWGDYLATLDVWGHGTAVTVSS
4995_P16 (PGT-145) (antibody), sequence (VL): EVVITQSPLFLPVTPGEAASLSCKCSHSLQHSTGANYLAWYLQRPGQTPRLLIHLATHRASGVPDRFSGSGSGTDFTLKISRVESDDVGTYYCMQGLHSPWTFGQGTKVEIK

## 4995_P16 (PGT-145) (antibody)
[1]
  IC50: 0.023 µg/mL
[2]
  IC50 (µg/mL), pseudovirus neutralization: 0.997 µg/mL
[3]
  IC50: 7.08 µg/mL
[4]
  IC50: 30.4 µg/mL
[5]
  IC50 (µg/mL), pseudovirus neutralization: 8.01 µg/mL
[6]
  IC50 (µg/mL), pseudovirus neutralization: 1.45 µg/mL
[7]
  IC50 (µg/mL), pseudovirus neutralization: > 50 µg/mL
[8]
  IC50: 1.9 µg/mL
[9]
  IC50 (µg/mL), pseudovirus neutralization: 1.36 µg/mL
[10]
  IC50 (µg/mL), pseudovirus neutralization: 0.235 µg/mL
[11]
  IC50 (µg/mL), pseudovirus neutralization: 0.552 µg/mL
[12]
  IC50, pseudovirus neutralization: 0.006 µg/mL
[13]
  IC50, pseudovirus neutralization: 0.136 µg/mL
[14]
  IC50 (µg/mL), pseudovirus neutralization: 1.76 µg/mL
[15]
  IC50: 0.104 µg/mL
[16]
  IC50: 1.05 µg/mL
[17]
  IC50, pseudovirus neutralization: 1.6 µg/mL
[18]
  IC50 (µg/mL), pseudovirus neutralization: 0.006 µg/mL
[19]
  IC50: 0.032 µg/mL
[20]
  IC50 (µg/mL), pseudovirus neutralization: 0.484 µg/mL
[21]
  IC50, pseudovirus neutralization: > 50 µg/mL
[22]
  IC50 (µg/mL), pseudovirus neutralization: 0.331 µg/mL
[23]
  IC50 (µg/mL), pseudovirus neutralization: 1.62 µg/mL
[24]
  IC50 (µg/mL), pseudovirus neutralization: > 50 µg/mL
[25]
  IC50 (µg/mL), pseudovirus neutralization: 20.9 µg/mL
[26]
  IC50, pseudovirus neutralization: > 50 µg/mL
[27]
  IC50 (µg/mL), pseudovirus neutralization: 0.967 µg/mL
[28]
  IC50 (µg/mL), pseudovirus neutralization: 0.128 µg/mL
[29]
  IC50 (µg/mL), pseudovirus neutralization: 3.15 µg/mL
[30]
  IC50, pseudovirus neutralization: > 50 µg/mL
[31]
  IC50, pseudovirus neutralization: > 50 µg/mL
[32]
  IC50, pseudovirus neutralization: > 50 µg/mL
[33]
  IC50 (µg/mL), pseudovirus neutralization: 1.87 µg/mL
[34]
  IC50, pseudovirus neutralization: 10.4 µg/mL
[35]
  IC50, pseudovirus neutralization: 10.9 µg/mL
[36]
  IC50, pseudovirus neutralization: 20.1 µg/mL
[37]
  IC50: > 50 µg/mL
[38]
  IC50 (µg/mL), pseudovirus neutralization: 0.028 µg/mL
[39]
  IC50 (µg/mL), pseudovirus neutralization: > 50 µg/mL
[40]
  IC50 (µg/mL), pseudovirus neutralization: > 50 µg/mL
[41]
  IC50, pseudovirus neutralization: 0.56 µg/mL
[42]
  IC50 (µg/mL), pseudovirus neutralization: 1.43 µg/mL
[43]
  IC50, single-round pseudovirus neutralization: 0.026 µg/mL
[44]
  IC50, pseudovirus neutralization: 0.025 µg/mL
[45]
  IC50 (µg/mL), pseudovirus neutralization: 0.013 µg/mL
[46]
  IC50: 0.045 µg/mL
[47]
  IC50 (µg/mL), pseudovirus neutralization: > 50 µg/mL
[48]
  IC50 (µg/mL), pseudovirus neutralization: 0.069 µg/mL
[49]
  IC50: 0.488 µg/mL
[50]
  IC50, single-round pseudovirus neutralization: 0.4 µg/mL
[51]
  IC50 (µg/mL), pseudovirus neutralization: 3.22 µg/mL
[52]
  IC50: 3.67 µg/mL
[53]
  IC50 (µg/mL), pseudovirus neutralization: 0.23 µg/mL
[54]
  IC50 (µg/mL), pseudovirus neutralization: 1.32 µg/mL
[55]
  IC50: 3.22 µg/mL
[56]
  IC50: 0.337 µg/mL
[57]
  IC50 (µg/mL), pseudovirus neutralization: > 50 µg/mL
